This is an account of results in PMC5472179 (Nature Communications, 2017).

The labels stand for the following.
B1: eVP30_(110–272) (domain or fragment)
chain: GSVEQQLNITAPKDSRLANPTADDFQQEEGPKITLLTLIKTAEHWARQDIRTIEDSKLRALLTLCAVMTRKFSKSQLSLLCETHLRREGLGQDQAEPVLEVYQRLHSDKGGSFEAALWQQWDRQSLIMFITAFLNIALQLPCESSAVVVSGLRTLVPQSDNEE
B2: eNP_(600–739) (domain or fragment)
chain: RTPTVAPPAPVYRDHSEKKELPQDEQQDQDHTQEARNQDSDNTQSEHSFEEMYRHILRSQGPFDAVLYYHMMKDEPVVFSTSDGKEYTYPDSLEEEYPPWLTEKEAMNEENRFVTLDGQQFYWPVMNHKNKFMAILQHHQ

Ends that are not written are not given here. * marks the point of attachment. FITC = O=C1OC2(c3ccc(O)cc3Oc3cc(O)ccc32)c2ccc(NC(=S)*)cc21

The target in data set [1] is B1. Briefly: fluorescence polarisation. As to conditions: both partners purified.
The data set “SEC-MALS” deals with the molecule itself. Briefly: SEC-MALS.
Data set [2] addresses B1. Kind of data set: SEC-MALS. As to conditions: both partners purified. On the technique in general: SEC sorts molecules by how far they enter the pores of the column.
For data set [3], the target named is B1. Briefly: ITC. As to conditions: both partners purified.

Take RTPTVAPPAPVYRDHS [eVP30BP (unlabelled)]: the binding result with eVP30_(110–272) [1] was “binds”.

On to {FITC}-RTPTVAPPAPVYRDHS [FITC-eVP30BP], for which the binding result with eVP30_(110–272) [1] is recorded as “binds”.

For B1, the “stoichiometry N” value in “SEC-MALS” amounted to 2.

As to B2, the “stoichiometry N” value in the data set with eVP30_(110–272) [2] came out at 1; with eVP30_(110–272) [3], 0.8. The dissociation constant (Kd) in the data set with eVP30_(110–272) [3] is 3.75 µM.

The stoichiometry N is the number of molecules, sites or subunits per partner or assembly. The Kd is a measure of binding affinity in units of concentration. Read a high Kd as lower affinity.
